This note sets out measurements from US20240092919A1 (Ablynx, published 2024).

T1: Human T cell receptor on human primary T cells (human, UniProt P01848 1-140; P01850 1-176)
T1 TCR alpha (looked up): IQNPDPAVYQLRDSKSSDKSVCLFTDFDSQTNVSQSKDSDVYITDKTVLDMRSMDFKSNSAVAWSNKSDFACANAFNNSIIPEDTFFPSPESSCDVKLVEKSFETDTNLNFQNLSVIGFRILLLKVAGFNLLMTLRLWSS
T1 TCR beta (looked up): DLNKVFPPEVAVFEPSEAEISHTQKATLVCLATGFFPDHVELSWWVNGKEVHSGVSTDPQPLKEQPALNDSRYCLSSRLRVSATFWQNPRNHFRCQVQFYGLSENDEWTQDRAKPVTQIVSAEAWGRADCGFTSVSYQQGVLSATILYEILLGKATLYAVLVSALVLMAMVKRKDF

T2: Cynomolgus TCR(AEA41865/AEA41866)-zipper protein (cynomolgus monkey)
T2 construct: also called cyTCR-zipper protein; cynoTCR zipper
T2 TCR alpha: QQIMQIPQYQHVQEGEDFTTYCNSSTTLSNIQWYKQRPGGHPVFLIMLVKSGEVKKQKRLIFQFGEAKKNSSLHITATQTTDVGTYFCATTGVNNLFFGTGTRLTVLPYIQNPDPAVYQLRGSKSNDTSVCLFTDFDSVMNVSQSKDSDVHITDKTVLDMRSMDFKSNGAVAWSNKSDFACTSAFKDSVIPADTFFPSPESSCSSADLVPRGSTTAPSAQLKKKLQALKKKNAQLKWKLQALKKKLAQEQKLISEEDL
T2 TCR beta: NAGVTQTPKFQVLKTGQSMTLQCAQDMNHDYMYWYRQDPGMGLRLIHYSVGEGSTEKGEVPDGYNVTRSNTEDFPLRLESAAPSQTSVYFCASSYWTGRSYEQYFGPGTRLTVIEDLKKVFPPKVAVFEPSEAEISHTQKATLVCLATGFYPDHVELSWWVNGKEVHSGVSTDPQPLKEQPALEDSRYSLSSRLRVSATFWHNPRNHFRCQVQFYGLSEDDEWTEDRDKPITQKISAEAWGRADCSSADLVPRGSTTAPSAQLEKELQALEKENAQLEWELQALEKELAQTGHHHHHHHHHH

B1: T017000628 (bispecific antibody)
chain: DVQLVESGGGVVQPGGSLRLSCVASYDVHKINFYGWYRQAPGKEREKVAHISIGDQTDYADSAKGRFTISRDESKNTVYLQMNSLRPEDTALYYCRALSKIWPYDYWGQGTLVTVSSGGGGSGGGGSGGGGSGGGGSGGGGSGGGGSGGGGSEVQLVESGGGLVQAGGSLRLSCAASGITSKINDMGWYRQTPGNYREWVASITATGTTNYRDSVKGRFTISRDNAKSTVYLQMNSLKPEDTTVYYCNTFPPISNFWGQGTLVTVSSA
B2: T017000161 (VHH)
VHH: EVQLVESGGGVVQPGGSLRLSCVASGEVHKINFLGWYRQAPGKEREKVAHISIGDQTDYADSAKGRFTISRDESKNMVYLQMNSLRPEDTALYFCRAFSRIYPYDYWGQGTLVTVSS
B3: T017000166 (VHH)
VHH: B2 VHH with E27D, L34Y
B4: T017000174 (VHH)
VHH: B2 VHH with G26W, E27D
B5: T017000170 (VHH)
VHH: B2 VHH with E27D, F33Y
B6: T017000176 (VHH)
VHH: B2 VHH with E27D, I31L
B7: T017000185 (VHH)
VHH: B2 VHH with E27D, L34F
B8: T017000179 (VHH)
VHH: B2 VHH with E27D, G35T
B9: T017000164 (VHH)
VHH: B2 VHH with E27Y
B10: T017000188 (VHH)
VHH: B2 VHH with E27A
B11: T017000173 (VHH)
VHH: B2 VHH with E27D, F33V
B12: T017000177 (VHH)
VHH: B2 VHH with E27S
B13: T017000180 (VHH)
VHH: B2 VHH with G26Q, E27D
B14: T017000554 (VHH)
VHH: B2 VHH with G26Y, E27D, K30Q, F98M, R100K
B15: T017000609 (VHH)
VHH: B2 VHH with E27D, K30Q, R100K
B16: T017000607 (VHH)
VHH: B2 VHH with G26W, E27D, K30Q, L34Y, R100K, Y102W
B17: T017000531 (VHH)
VHH: B2 VHH with E27S, F98M, Y102W, Y106W
B18: T017000742 (VHH)
VHH: B2 VHH with E27Y, K30Q, L34Y, F98M, Y102W, Y106W
B19: T017000577 (VHH)
VHH: B2 VHH with G26W, E27D, K30Q, F98M
B20: T017000518 (VHH)
VHH: B2 VHH with G26Y, E27S, K30Q, I31L, F98M, Y102W
B21: T017000750 (VHH)
VHH: B2 VHH with G26Y, E27A, K30Q, L34Y, F98M, Y102W
B22: T017000610 (VHH)
VHH: B2 VHH with E27D, K30Q, F98L, R100K
B23: T017000578 (VHH)
VHH: B2 VHH with G26Y, E27D, K30Q, I31L, L34Y, F98M, Y102W
B24: T017000740 (VHH)
VHH: B2 VHH with G26W, E27D, K30Q, I31L, L34Y, F98M, R100K
B25: T017000612 (VHH)
VHH: B2 VHH with E27D, K30Q, I31L, F98L, R100K
B26: T017000614 (VHH)
VHH: B2 VHH with E27Y, L34Y, F98L, Y102W
B27: T017000754 (VHH)
VHH: B2 VHH with E27Y, K30Q, F98M, R100K, Y102W
B28: T017000547 (VHH)
VHH: B2 VHH with E27A, I31L, L34Y, Y102W
B29: T017000539 (VHH)
VHH: B2 VHH with E27Y, L34Y, F98M, Y102W, Y106W
B30: T017000538 (VHH)
VHH: B2 VHH with E27Y, I31L, L34Y, F98M, Y102W
B31: T017000759 (VHH)
VHH: B2 VHH with E27S, L34Y, R100K, Y102W, Y106W
B32: T017000766 (VHH)
VHH: B2 VHH with E27Y, L34Y, F98M, R100K
B33: T017000588 (VHH)
VHH: B2 VHH with E27A, L34Y, F98M, R100K, Y102W
B34: T017000776 (VHH)
VHH: B2 VHH with G26W, E27S, K30Q, L34Y, F98M, R100K, Y102W
B35: T017000521 (VHH)
VHH: B2 VHH with E27S, K30Q, I31L, L34Y, F98M, Y102W
B36: T017000589 (VHH)
VHH: B2 VHH with E27Y, I31L, L34Y, F98M, Y102W, Y106W
B37: T017000774 (VHH)
VHH: B2 VHH with E27D, K30Q, L34Y, F98M, R100K, Y102W
B38: T017000611 (VHH)
VHH: B2 VHH with E27D, K30Q, L34Y, R100K
B39: T017000593 (VHH)
VHH: B2 VHH with E27A, I31L, L34Y, F98M, R100K, Y102W
B40: T017000566 (VHH)
VHH: B2 VHH with E27Y, I31L, F98M, Y102W, Y106W
B41: T017000608 (VHH)
VHH: B2 VHH with G26W, E27D, L34Y, R100K, Y102W
B42: T017000550 (VHH)
VHH: B2 VHH with E27S, K30Q, F98M, Y106W
B43: T017000757 (VHH)
VHH: B2 VHH with E27A, I31L, R100K, Y102W, Y106W
B44: T017000530 (VHH)
VHH: B2 VHH with E27A, I31L, G65D, F98M

Numbering of substitutions follows the chain as printed.
Wherever % Lysis, T cell mediated MOLM-13 cell killing, cynomolgus primary T cells, E:T 10:1 is given: test concentration or dose not given here.
Wherever % Lysis, T cell mediated MOLM-13 cell killing, human primary T cells, E:T 10:1 is given: test concentration or dose not given here.

The first assay has as its target T1, Human T cell receptor on human primary …. The experiment in a line: cell-based or functional assay.
For the molecule B1, the “% Lysis, T cell mediated MOLM-13 cell killing, human primary T cells, E:T 10:1” value was determined as 39% and the “EC50 (M), T cell mediated MOLM-13 cell killing, human primary T cells, E:T 10:1” value amounted to 1.6e-10 M.

Another assay addresses Cynomolgus T cell receptor on cynomolgus primary T cells (cynomolgus monkey). As to the kind of experiment: cell-based or functional assay.
With B1, the “% Lysis, T cell mediated MOLM-13 cell killing, cynomolgus primary T cells, E:T 10:1” value is 40% and the “EC50 (M), T cell mediated MOLM-13 cell killing, cynomolgus primary T cells, E:T 10:1” value was found to be 2e-11 M.

The next assay concerns the target T2, Cynomolgus …. As to the kind of experiment: SPR ProteOn off-rate screen.
Text: Unique ISVD clones, i.e. clones with a unique sequence, were subsequently selected and screened to determine their off-rate. To this purpose, the ISVD containing periplasmic extracts were screened on huTCR-zipper and cyTCR-zipper protein by SPR on a ProteOn XPR36 instrument. The zipper proteins were immobilized on a GLC sensor chip (between 4300 and 5100RU) via amine coupling chemistry, using EDC/sulfo-NHS for activation of the carboxyl groups on the chip surface (running buffer: HBS-EP+, pH7.4). Periplasmic extracts were injected at 1/10 dilution for 2 min (at a flow rate of 45 μL/min) and dissociation was followed for 900 s. A pulse of 100 s of 3 M MgCl2 at 45 μL/min was used for regeneration. […] Processed sensorgrams were fitted with the Langmuir model (1:1 interaction) using ProteOn Manager 3.1.0 (Version 3.1.0.6) software.
In turn, B2 yielded a koff of 0.00624 s⁻¹.

B3 showed a koff of 0.00825 s⁻¹.

As for B4, the off-rate (koff) was 0.00791 s⁻¹.

For the molecule B5, the dissociation rate constant (koff) amounted to 0.00806 s⁻¹.

As for B6, the koff came out at 0.00791 s⁻¹.

Consider B7, for which the dissociation rate constant (koff) came to 0.0114 s⁻¹.

Turning to B8, the off-rate constant (koff) was found to be 0.00775 s⁻¹.

Molecule B9 yielded a koff of 0.00412 s⁻¹.

For B10, the off-rate constant (koff) worked out at 0.00389 s⁻¹.

In turn, B11 came in with a koff of 0.00903 s⁻¹.

Regarding B12, the off-rate constant (koff) was determined as 0.00325 s⁻¹.

The molecule B13 came in with a koff of 0.00998 s⁻¹.

The target of another assay is T2, Cynomolgus …. The experiment in a line: SPR ProteOn off-rate screen. This is another data set of the same source.
Molecule B14 gave a koff of 0.000767 s⁻¹.

B15 yielded a koff of 0.00114 s⁻¹.

Take B16: the koff turned out to be 0.000316 s⁻¹.

Turning to B17, the koff is 0.00232 s⁻¹.

B18 had a koff of 0.00391 s⁻¹.

Molecule B19 gave an off-rate (koff) of 0.00188 s⁻¹.

Molecule B20 yielded a koff of 0.0268 s⁻¹.

B21 registered an off-rate constant (koff) of 0.00373 s⁻¹.

Molecule B22 registered an off-rate (koff) of 0.000857 s⁻¹.

In turn, B23 had a dissociation rate constant (koff) of 0.00349 s⁻¹.

B24 came in with a koff of 0.000391 s⁻¹.

Take B25: the off-rate constant (koff) came out at 0.00105 s⁻¹.

Take B26: the off-rate constant (koff) amounted to 0.00116 s⁻¹.

In turn, B27 registered a koff of 0.000237 s⁻¹.

Consider B28, for which the koff turned out to be 0.00156 s⁻¹.

B29 registered an off-rate constant (koff) of 0.00151 s⁻¹.

For the molecule B30, the off-rate constant (koff) was found to be 0.000766 s⁻¹.

The molecule B31 returned an off-rate (koff) of 0.00101 s⁻¹.

Regarding B32, the koff amounted to 0.000239 s⁻¹.

B33 registered a koff of 0.000158 s⁻¹.

Molecule B34 returned an off-rate (koff) of 0.000525 s⁻¹.

For the molecule B35, the off-rate (koff) is 0.00275 s⁻¹.

The molecule B36 had a koff of 0.00115 s⁻¹.

B37 yielded a koff of 0.000431 s⁻¹.

B38 displayed a koff of 0.00171 s⁻¹.

Consider B39, for which the off-rate (koff) was found to be 0.00019 s⁻¹.

In turn, B40 returned an off-rate constant (koff) of 0.00164 s⁻¹.

Molecule B41 came in with a koff of 0.000472 s⁻¹.

In the case of B42, the dissociation rate constant (koff) turned out to be 0.0095 s⁻¹.

In turn, B43 gave a koff of 0.000603 s⁻¹.

Take B44: the dissociation rate constant (koff) is 0.00182 s⁻¹.
